# Experimental data from patent publication US20260250410A1 (SICHUAN HUIYU PHARMACEUTICAL, published 2026).
# T1: HuCDCP1-A (human, UniProt Q9H5V8 30-430)
# T1 construct: range 30-430; expressed in HEK-293T, purified by Fc/his tag; also called human CDCP1-A; membrane-distal region of CDCP1; not shown: Fc or his tag
# T1 sequence (looked up): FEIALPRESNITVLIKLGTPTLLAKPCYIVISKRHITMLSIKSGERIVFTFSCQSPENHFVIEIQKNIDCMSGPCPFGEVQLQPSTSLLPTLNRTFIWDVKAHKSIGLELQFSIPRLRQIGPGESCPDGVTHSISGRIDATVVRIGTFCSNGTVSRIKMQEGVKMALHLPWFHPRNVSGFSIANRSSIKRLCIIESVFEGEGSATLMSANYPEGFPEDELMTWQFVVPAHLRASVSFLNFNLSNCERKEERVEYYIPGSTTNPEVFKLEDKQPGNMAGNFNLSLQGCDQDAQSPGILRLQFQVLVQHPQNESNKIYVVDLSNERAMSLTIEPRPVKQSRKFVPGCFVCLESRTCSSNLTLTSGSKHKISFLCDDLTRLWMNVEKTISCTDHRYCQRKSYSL
# T2: MsCDCP1 (mouse, UniProt Q5U462 30-666)
# T2 construct: extracellular domain; also called mouse CDCP1; not shown: Fc or his tag
# T2 sequence (looked up): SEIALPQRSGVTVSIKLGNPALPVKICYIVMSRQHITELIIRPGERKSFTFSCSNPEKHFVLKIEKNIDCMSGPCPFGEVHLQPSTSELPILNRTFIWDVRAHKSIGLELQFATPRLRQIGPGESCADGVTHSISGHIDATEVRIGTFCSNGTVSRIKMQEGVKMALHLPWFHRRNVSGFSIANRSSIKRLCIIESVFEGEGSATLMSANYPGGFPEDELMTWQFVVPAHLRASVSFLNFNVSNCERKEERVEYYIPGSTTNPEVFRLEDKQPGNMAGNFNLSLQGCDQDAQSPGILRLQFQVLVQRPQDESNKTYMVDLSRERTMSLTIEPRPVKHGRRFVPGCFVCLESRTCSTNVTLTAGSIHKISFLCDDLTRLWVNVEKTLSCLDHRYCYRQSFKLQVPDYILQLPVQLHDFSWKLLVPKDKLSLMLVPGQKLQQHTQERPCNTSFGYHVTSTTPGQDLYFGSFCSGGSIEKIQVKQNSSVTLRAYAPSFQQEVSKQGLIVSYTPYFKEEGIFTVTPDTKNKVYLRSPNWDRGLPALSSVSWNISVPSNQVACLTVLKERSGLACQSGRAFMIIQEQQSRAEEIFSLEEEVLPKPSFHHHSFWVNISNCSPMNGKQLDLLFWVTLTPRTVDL
# What was measured:
# HuCDCP1-A = molecular target: T1, HuCDCP1-A; test: SPR (Caterra), antigen immobilized
# Protocol: (§1) The humanized anti-CDCP1 antibodies obtained from Example 11 were subjected to gene cloning, constructed into pTT5 expression vector for a small amount of expression in CHO cells (Expi-CHOS: Gibco A29127), and purified with an Fc affinity column (AT Protein A Diamond Plus. No. AA402312). Antibody purity was analyzed by HPLC and determined by Nanodrop. High-throughput affinity assay was carried out for a small amount of antibodies by Caterra.
# (§2) Further, Partial anti-CDCP1 humanized antibodies were selected for expression, and then the affinity of the antibodies to the antigens Hu-CDCP1-A, Hu-CDCP1-B, Cyno-CDCP1, and Ms-CDCP1 was detected according to the above affinity detection method.
# MsCDCP1 = molecular target: T2, MsCDCP1; test: SPR (Caterra), antigen immobilized
# Protocol: as §1, §2
Binder,Kd (HuCDCP1-A) [nM],Kd (MsCDCP1) [nM],binding result (MsCDCP1)
"1CP-124 (antibody, human IgG1, kappa, V domains shown, humanized 3C11, human IgG1 kappa) VH: QVQLVQSGAEVKKPGASVKVSCKASGYNFISYWLHWVRQAPGQGLEWMGGIYPGNTDTTYNQKFKGRVTMTRDTSTSTVYMELSSLRSEDTAVYYCIRYDYDRGMDYWGQGTLVTVSS VL: DIQMTQSPSSLSASVGDRVTITCRASEDIYYRLAWYQQKPGKAPKLLISGATALETGVPSRFSGSGSGKDYTFTISSLQPEDIATYYCQHYWNIPWTFGQGTKVEIKR",132,274,–
"1CP-128 (antibody, human IgG1, kappa, V domains shown, humanized 3C11, human IgG1 kappa) VH: QVQLVQSGAEVKKPGASVKVSCKASGYNFISYWLHWVRQAPGQGLEWMGGIYPGNTDTTYNQKFKGRVTMTRDTSTSTVYMELSSLRSEDTAVYYCIRYDYDRGMDYWGQGTLVTVSS VL: DIQMTQSPSSLSASVGDRVTITCRASEDIYYRLAWYQQKPGKAPKLLISGATALETGVPSRFSGSGSGKDYTLTISSLQPEDIATYYCQHYWNIPWTFGQGTKVEIKR",76,–,no binding (tested: 150 nM highest concentration)
"1CP-152 (antibody, human IgG1, kappa, V domains shown, humanized 8C9, human IgG1 kappa) VH: EVQLVESGGGLVQPGRSLRLSCTTSGLTFTHYHMSWVRQAPGKGLEWVAIIRNKAYGYTTDYSASVRGRFTISRDDSKSILYLQMNSLKTEDTAVYYCVREGGYGYDGTFAYWGQGTLVTVSS VL: DIQMTQSPSSLSASVGDRVTITCRASESVDNYGISFMNWFQQKPGQAPKLLIYAASNQGSGVPSRFSGSGSGTDFTLTISSMQPEDFATYYCQQSKEVPRTFGGGTKVEIKR",105,745,–

# Further lines, with some results ahead:
Kd (HuCDCP1-A) [nM],Kd (MsCDCP1) [nM],Binder,binding result (MsCDCP1)
126,–,"1CP-129 (antibody, human IgG1, kappa, V domains shown, humanized 3C11, human IgG1 kappa) VH: QVQLVQSGAEVKKPGASVKVSCKASGYNFISYWLHWVRQAPGQGLEWMGGIYPGNTDTTYNQKFKGRVTMTADTSTSTVYMELSSLRSEDTAVYYCIRYDYDRGMDYWGQGTLVTVSS VL: DIQMTQSPSSLSASVGDRVTITCRASEDIYYRLAWYQQKPGKAPKLLISGATALETGVPSRFSGSGSGKDYTLTISSLQPEDIATYYCQHYWNIPWTFGQGTKVEIKR",no binding (tested: 150 nM highest concentration)
559,–,"1CP-125 (antibody, human IgG1, kappa, V domains shown, humanized 3C11, human IgG1 kappa) VH: QVQLVQSGAEVKKPGASVKVSCKASGYNFISYWLHWVRQAPGQGLEWMGGIYPGNTDTTYNQKFKGRVTMTADTSTSTVYMELSSLRSEDTAVYYCIRYDYDRGMDYWGQGTLVTVSS VL: DIQMTQSPSSLSASVGDRVTITCRASEDIYYRLAWYQQKPGKAPKLLISGATALETGVPSRFSGSGSGKDYTFTISSLQPEDIATYYCQHYWNIPWTFGQGTKVEIKR",no binding (tested: 150 nM highest concentration)
226,–,"1CP-157 (antibody, human IgG1, kappa, V domains shown, humanized 8C9, human IgG1 kappa) VH: EVQLVESGGGLVQPGRSLRLSCTTSGLTFTHYHMSWVRQAPGKGPEWVAIIRNKAYGYTTDYSASVRGRFTISRDDSKSILYLQMNSLKTEDTAVYYCVREGGYGYDGTFAYWGQGTLVTVSS VL: DIQMTQSPSSLSASVGDRVTITCRASESVDNYGISFMNWFQQKPGQPPKLLIYAASNQGSGVPSRFSGSGSGTDFTLTISSMQPEDFATYYCQQSKEVPRTFGGGTKVEIKR",no binding (tested: 150 nM highest concentration)
